Target: Arabidopsis thaliana ornithine transcarbamylase (Arabidopsis thaliana) (UniProt O50039)
Assay: crystal structure; AtOTC co-crystallised with 20 mM ornithine or carbamoyl phosphate; HEPES 0.1 M pH 6.0, 0.3 M Li2SO4, PEG 3350, about 20°C; three subunits around a non-crystallographic three-fold axis

Arabidopsis thaliana ornithine transcarbamylase, sequence (O50039 53-375): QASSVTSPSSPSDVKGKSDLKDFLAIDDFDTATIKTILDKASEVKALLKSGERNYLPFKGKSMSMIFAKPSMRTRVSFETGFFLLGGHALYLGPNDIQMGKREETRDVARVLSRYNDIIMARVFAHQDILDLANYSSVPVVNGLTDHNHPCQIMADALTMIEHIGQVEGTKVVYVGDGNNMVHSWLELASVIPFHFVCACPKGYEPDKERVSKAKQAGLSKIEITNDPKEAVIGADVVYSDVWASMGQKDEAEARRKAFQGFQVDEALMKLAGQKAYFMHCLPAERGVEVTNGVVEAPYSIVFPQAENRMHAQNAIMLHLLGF

- stoichiometry N: 3
Substance: Arabidopsis thaliana ornithine transcarbamylase (from UniProt O50039 53-375) (enzyme)
